Measured values taken from article doi:10.1101/2024.06.21.600001 (bioRxiv, 2024).

Experiments:
Assay in all cases: immunostaining of cells or tissue
Details in all cases: one partner purified
[1] = target: T1, Zaire ebolavirus glycoprotein (EBOV GP), full-length transmembrane, Mayinga (Zaire ebolavirus (EBOV), Mayinga, UniProt Q05320)
T1 construct: source: MDCK SIAT-1 cells expressing EBOV GP, on the cell surface

[2] = target: T2, Sudan ebolavirus glycoprotein (SUDV GP), full-length transmembrane (Sudan ebolavirus (SUDV), UniProt Q7T9D9)
T2 construct: source: MDCK SIAT-1 cells expressing SUDV GP, on the cell surface

[3] = target: T3, Bundibugyo ebolavirus glycoprotein (BDBV GP), full-length transmembrane (Bundibugyo ebolavirus (YP_003815435.1), UniProt B8XCN0)
T3 construct: source: MDCK SIAT-1 cells expressing BDBV GP, on the cell surface

[4] = target: Tai Forest ebolavirus glycoprotein (TAFV GP) (Tai Forest ebolavirus (TAFV), UniProt Q66810)
[5] = target: Reston ebolavirus glycoprotein (RESTV GP) (Reston ebolavirus, isolate ; …, UniProt Q66799)

Measured: binding result

B1: mAb 11883, recombinant rabbit IgG (antibody, V domains shown)
VH: QEQLVESGGGLVQPEGSLTLTCTASGFSFSSNCWRCWVRQAPGKGLEWIACVCAGRSGGTTYYASWAKGRFTISKTSSPTVTLQMTSLTAADTATYFCARAGYDDYGDASFFNLWGPGTLVTVS
VL: AVVLTQTASPVSTPVGGTVTIKCQASQNIYSNLAWYQQKPGQPPKLLIYSASTLASGVPSRFKGSGSGTEYTLTISDLECADAATYYCQRYYYLSGSADNTFGGGTEVVVK
notes: source: HEK293F, transfected, purified (Protein A); copies: 2 + 2
binds: all assays above

B2: mAb 11886, recombinant rabbit IgG (antibody, V domains shown)
VH: QSVEESGGRLVTPGTPLTLTCIVSGFSLSNYYMSWVRQVPGKGLEWIGVIGWSGTSSYASWAKGRFTISKTASTTVDLKITSPTTEDTATYFCARVLYIGGGFNYYDAFDPWGPGTLVTVS
VL: DVVMTQTPASVSEPVGGTVTIKCQASQSIGSNLAWYQQKPGQPPKLLIYAASTLASGVPSRFKGSGSGTEFTLTISDLECADAATYYCQCTYYDSSYVYNNFGGGTEVVVK
notes: as for B1
binds: all assays above
